The values below come from paper PMC12048488.

The assay concerns the target HTT-Q20 (endogenous knock-in huntingtin: mouse Htt with humanized HTT exon 1, normal polyQ) (human | mouse). The assay is described as follows: affinity purification with mass spectrometry; evaluation of antibodies: IP-MS from whole brain and striatum lysates of 8-week Q20 and Q140 mice with EPR5526, 2B7-4C9, 4E10-3E10 or 138-139 antibodies against mIgG controls.

B1: HAP40 (F8a1), Huntingtin-associated protein 40 (natural protein)
chain: MAAGSASSLGGGAWPGSEAGDFLARYRQVSNKLKKRFLRKPNVAEAGEQFAQLARELRAQECLPYAAWCQLAVARCQQALFHGPGEALALTEAARLFLRQECDARQRLGCPAAYGEPLQAAASALGAAVRLHLELGQPAAAAALCLELAAALRAVGQPAAAAGHFQRAAQLHLPLMPLAALQALGDAASCQLLARDYTGALALFTRMQRLAREHGGHPVQQLELLPQPPSGPQPPLSGPQPRPVLGSTLPLPQPPDHAPGSVAPSPGTLGAFADVLVRCEVSRVLLLLLLQPPPAKLLPEHAQTLEKYSWEAFDGHGQDTSGQLPEELFLLLQSLVMAAQEKDTEGIKKLQVEMWPLLTAEQNHLLHLVLQETISPSGQGV
B1: the stoichiometry N (HTT:HAP40 ratio) was determined as 1.
